The record followed here is the nanobody polyreactivity screen of Harvey et al. (2022).

The series is described as follows: yeast display, Sf9 membrane polyspecificity reagent, FACS + sequencing; frameworks hold sequencing errors. In outline: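 Nanobodies came from a synthetic yeast display library in Saccharomyces cerevisiae BJ5465, induced with galactose for 36–48 hours and stained for 1 hour at 4 °C with 10% biotinylated, detergent-solubilized Sf9 membrane reagent. Cells were enriched on streptavidin microbeads and then FACS-sorted, with low and high (top ~1%) gates set on anti-HA fluorescence for expression and streptavidin fluorescence for reagent binding. Each polyreactivity label reflects the gate a clone came from. Genes were amplified by colony PCR, sequenced by MiSeq 2 × 250 and filtered by CDR length.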
As to “QVQIVESGGGLVQAGGSLRLSCADSGRTLYRYGMGWYRQAPGKERELVDVIDRGGSTNYADSVKGRFTISRDNAKNTVYLLMNSLKPEDTAVYYCAKRWTAREPWRKGMGYWGQGTQVTVSS”, the “polyreactivity (PSR sort gate)” value was “high polyreactivity”.
As for “QVQLVESGGGLVQAGGSLRLSCAASGRTFRYNAMGWYREAPGKERELVAAISTRGGSTYYADSVKGRFTISRDNAKNTVYLQMNSLKPEDTAVYYCAVTRRFPGHFEDYYWGQGTQVTVSS”, the “polyreactivity (PSR sort gate)” value is listed as “low polyreactivity”.
As for “QVQLVESGGGLVQAGGSLRLSCAASGNTSGHNAMGWYRQAPGKERELVADIRTGDSTNYADSVKGRFTISRDNAKNTVYLQMNSLKPEDTAVYYCAADSAYDVTSYGYWGQGTQVTVSS”, the entry is “low polyreactivity”; as for “QVQLVESGGGLVQAGGSLRLSCAASGSIFRSNAMGWYRQAPGQERELVAAISRSGGRTYYADSVKGRFTISRDNAKNTVYLQMNSLKPEDTAVYYCAAQVVRSLKYEYWGQGTQVTVSS”, “high polyreactivity”; as for “QVQLVESGGGLVQAGGSLRLSCAASGRTSVVNAMGWYRQAPGKERELVAAITSGGSTHYADSVKGRFTISRDNAKNTVYLQMNSLKPEDTAVYYCNARDRRRTNLLDYWGQGTQVTVSS”, “low polyreactivity”.
Then “QVQLVESGGGLVQAGGSLRLSCAASGGTFYRNDMGWYRQAPGKERELVAVITYRGGSTDYADSVKGRFTISRDNAKNTVYFQMNSLKPEDTAVYYCAVDYTFSYPYEDDYWGQGTQVTVSS”, with “low polyreactivity”; and “QVQLVESGAGLVQAGGSLRLSCAASVSTLDLYAMGWYRQAPGKERELVAYISWSGGSTYYADSVKGRFTISRDNAKNTVYLQMNSLKPEDTAVYYCAAGNITPYRYYHGYYQSIYDYWGQGTQVTVSS”, with “low polyreactivity”.
As for “QVQLVESGGGLVQAGGSLRLSCAASGSTFFGYDMGWYRQAPGTERELVATINSGGSTYYADSVKGRFTISRDNAKYTVYLQMNSLKPEDTAVYYCAARPSYLYPFDRTGEYDYWGQGTQVTVSS”, the entry is “high polyreactivity”; as for “QVQLVESGGGLVQAGGSLRLSCAASGFTFYYYAMGWYRQAPGKERELVAAISIGGSTYYAGSVKGRFTISRHNEKNTVYLQMNSLKPEDTAVYYCNVVFTYWPPGTARYDYSGQGTQVTVSS”, “high polyreactivity”; as for “QVQLVESGGGLVHAGGSLRLSCAASGRTFATNTIGWYRQAPGKERELVAAITFSGGSTYYADSVKGRFTISRDTAKIPRYLQMNCLKPEDNEVYYCNVRSPYYSYRYRYGYWGQGSQVTVSS”, “high polyreactivity”.
“QVQLVESVGGLVQAGGSLRLTCAASGRILGYYAMGWYRQAPWKERELVAAISRAGSTNYADSVKGRFTISRDNAKNTVNLQMNSLKPEHTAVYYCAARQYRRGYNYWGQGTQVTVSS”: the “polyreactivity (PSR sort gate)” value is “high polyreactivity”.
Then “QFQLVESGRGLVQAGGSLRLSCAASGSIFYAYAMGWYRKAPGKEREFVAVISYSGGSTYYADSVQGRFTISRDKAKNTVYLQMNSLKPEDTAVYYCAARYRAWSGNYWGQGTQVTVSS”, with “high polyreactivity”; and “QVHLVESGGGLVQAAGSLRLSCAASGRTFPYNAKGWYRQAPGKERELVAAISSGGSTNYADSVKGRFTISRDNAKNTVYLQMNSLKPEDTAVYYCATKYQRRPYRYYYWGQGTQVTVSS”, with “low polyreactivity”.
As for “QVQLVESGGGLVQAGGSLRLSCAASGSTFGFNAMGWYRQAPGKERELLPLFWSGGSTYYADSVKGRFTISRDNAKNTVYLQMNSLKPEDTAVYYCNKDSPPITRYDYWGQGTQVTVSS”, the entry is “low polyreactivity”; as for “QVQLVESGGGLVQAGGSLRLSCAASGFIFNLYAMGWYRQAPGKERELVAAISSGGGTSYADSVKGRFTISRDNAKNTDYLQMNSLKPEDTAVYYCAKRSGTYPFNFRFDYWGQGTQVTVSS”, “high polyreactivity”; as for “QVQLVESGGGLVQAGGSLRLSCAASGNIFRNNAMGWYRQAPGKERELVAAISRGGSTYYADSVKGRFTISRDNAKNTVYLQMNSLKPEDTAVYYCNKYSSRAYNYWGQGTQVTVSS”, “high polyreactivity”.
Then “QVQLVESGGGLVQAGGSLRLSCAASGFIFSYYVMGWYREAPGKERELVAAISWNGGSTFYADSVKGRFTISRDNAKNSVYLQMNSLKPEDTAVYYCAAYPRFYGGKYGEYGYWGQGTQVTVSS”, with “high polyreactivity”; and “QVQLVESGGGLVQAGCSLRLSCAASGSTFGYYTMGWYRQAPGKERELVAAITRSGGSTYYADSVKGRFTISRDNAKNSVYLQMTSLKPEDTAVYYCAADDYWTTFGYWGLGTQVTVSS”, with “low polyreactivity”; and “QVQLQESGGGLVQAGGDLRLSCAASGNIFRDYIMGWYRQAPGKEREFVAGIDRGANTNYADSVKGRFTISRDNAKNTVYLQMNSLKQEDTAVYYCAVHTAIVPDFIYWGQGTQVTVSS”, with “low polyreactivity”.
Take “QVQLVESGGGLVQAGGSLRLSCAASGITFTSYVMGWYRQAPGKERELVAAIRWSGGRTYYADSVKGRFTISRDNAKNTVYLQMNSLKPEDTAVYYCNADYAYNSYGYRFYYWGQGTQVTVSS”: the “polyreactivity (PSR sort gate)” value is reported as “high polyreactivity”.
“QVQLVESGGGLVQAGGSLRLSCAASGFIFSRYVMGWYRQAPGKEMELVAVISYRGGSTYYADSVKGRFTISRDNAKNTVYLQMNSLKPEDTAVYYCNADTIPDGEDRYDYWCQGTQVTVSS”: the “polyreactivity (PSR sort gate)” value is reported as “low polyreactivity”.
As for “RVQLVESGGGLVQAGGSLRLSCAASGRTFVNYAMGWYRQAPGKEREFVAAITNGGRTNYADSVKGRFTISRDNAKNTVYLQMNSLQPEETEVYYCAARYRFGGIRRYNYWGQGTQVTVSS”, the entry is “high polyreactivity”; as for “QVQLVESGGGLVQAGGSLRLSCAASGRTFGRYAMGWYRQAPGKERELVATITSGGSTNYADSVKGRFTISRDNAKNTVYLQMNSLKPEDTAVYYCAAEFSPSRWAYSEGALRYHYWGQGTQVTVSS”, “low polyreactivity”; as for “QVQLVESGGGLVQAGGSLRLSCAASGSTIVVYAMGWYRQAPGKARELVAAITTSDDSTYYADSVKGRFTISRDNAKNTVYLQMNSLKPEDTAVYYCAATLRWQDGYSGQGTQVTVSS”, “low polyreactivity”.
As for “QVQLVESGGGLVQAGGSLRLICAASGITFDDYDMGWYRQAPGKEREFVSAISFSGSSTYYADSVKGRFTISRDKAKNTVYLQMNSLKPEDTAVYYCNADYVYSGGRYFGKDYWFDYWGQGTQVTVSS”, the “polyreactivity (PSR sort gate)” value is recorded as “low polyreactivity”.
Turning to “QVQLVESGGGLVQAGGSLRLSCAASGRTFVRYAMGWYRQAPGKERELVAAITSGGSTYADSVKGRFTISRDNAKNTVYLQMNSLKPEDTAVYYCAARRYPSYGSWGQGTQVTVSS”, the “polyreactivity (PSR sort gate)” value is on record as “low polyreactivity”.
As for “QVQLVESGGGLVQAGGSLRLSCAASGSIFEIYAMGWYRQAPGKERQLVASITWSGGSTYYADSVKGRFTISRDNAKNTVYLQMNSLKPEDTAVYYCATDKLYGRTVRMDYWGQGTQVTVSS”, the entry is “low polyreactivity”; as for “QDQLVESGGGLVQAGGSLRLSCAASGITFAGNAMGWYRQAPGKERELVAAISGSGGSTSYADSVKGRFTISRDNAKNTVYLQMNSLKPEDTAVYYCAAASRLYNWHALFGSWGQGTQVTVSS”, “low polyreactivity”.
As for “QVQLVESGGGLVQAGGTLRLSCAATRSTFYPYAMGWYRQAPGKERELVAAISDGDSTNYADSVKGRFTISRDNAKNTVSLQMNSVKPEDTAVYYCNADYVRIFYSYYGYHDYDYWGQGTQVTVSS”, the entry is “low polyreactivity”; as for “QVQLVESGGGLVQAGGSLRLSCAASGSIFYRYAMGWYRQAPGKERELVAAISTAGSTNYADSVKGRFTISRDNAKNTVYLQINSPKPEDTAVYYCAAKSYRGRTQRSYGYWGQGTQVTVSS”, “low polyreactivity”; as for “QVQLVESGGGLVQAGGSLRLSCAASGRTFYLYAMGWYRQAPGKERELVAAITSGGSTYYADSVKGRFTISRDNAKNTVYLQMNSLKPEDTAVYYCAKRPVSVGYGYPRVSWGYDYWGQGTQVTVSS”, “high polyreactivity”.
As for “QVQLVESGGGLVQAGGSLRLSCAASGRILYRYAMGWYRQAPGKERELVAAISYSGGSTSYADSVKGRFTISRDNAKNTVYVQMNSLKPEDTAVYYCAAAYYLLRYKKRYDYWGQGTQVTVSS”, the entry is “high polyreactivity”.
As for “QVQLVESGGGLVQAGGSLRLSCAASGFYYGIGWYRQAPGTERELVAVITRGGSTNYADSVKGRFTISRDNAKNTVYLQMISLKPEDTAVYYCAARLYWAYRYGSWGQGSQVTVSS”, the “polyreactivity (PSR sort gate)” value was “high polyreactivity”.
With “QVQLVESGGGLVQAGGSLRLSCAASGYTLGVNAMGWSRQAPGKERELVAAINYIDTRTYYADSVKGRFTISRDNAKNTVYLKLNSLKPEDTAVYYCAARPYVPWVKRYYYWGQGTQVTVSS”, the “polyreactivity (PSR sort gate)” value was “low polyreactivity”.
As for “QVQLVESGGGLVQAGGSLRISCAASGFIFYWNAMGWYRQAPGKERELVAGITSGGDTNYADSVKGRFTISRDNAKNTVYLQINSLKPEDTAVYYCAAEGFRGYGYWGQGTQVTVSS”, the entry is “low polyreactivity”.
Turning to “QVQLVESGGGLVQAGGSLRLSCAASGSTFTLYAKGWYRQAPGKERELVAAINGAGSTYYADSVKGRFTISRDNAKNTVYLQMNSLKPEDTAVYYCAKDLQYGWYDYWGQGTQVTVSS”, the “polyreactivity (PSR sort gate)” value was “low polyreactivity”.
On to “QVHLVESGGGLVQAGGSLRLSCAASGSIFRGYAMGWYRQAPGRERELVAAISRSGGSTYYADSVKGRFTISRDNAKNTVYLQRNSLKPEDTAGYYCAALLRGRYRMYYWGQGTQVTVSS”, for which the “polyreactivity (PSR sort gate)” value was “high polyreactivity”.
In the case of “QVQLVESGGGLVQAGGSLRLSCAASGFTFRYYAMGWYRQAPGKERELVAGISSRGGSTYYADSVKGRFTISRDNAKNTDYLQMNSLKTEDTAVYYCATERFLLGLGYDYWGQGTQVTVSS”, the “polyreactivity (PSR sort gate)” value is “high polyreactivity”.
Then “QVQLVESGGGLVQAGGSLRLSCAASGIIFRNYAMGWYRQAPGKEREFVAAISYRGGTTYYADSVKGRFTISRDNAKNTVYLQMNSLKPEDTAVYYCAAPYYLQQSRYYYWGQGTQVTVSS”, with “high polyreactivity”; and “QVQLVESGGGLVQAGGSLRLSCAASGSTFRGYVMGWYRQAPGKERELVAAISRGGGSTYYADSVKGRFTISRDNAKNTVYLQMNSLKPEDTAVYYCATDYSGRQPGKYGYWGQGTQVTVSS”, with “high polyreactivity”.
As for “QVQLVESGGGLVQAGGSLRLSCAASGRIFQYYVMGWYRQAPGKERELVAAIRSGGTTNYADSVKGRFTISRDNAKNTVYLQMNSLKPEDTAVYYCNARYRNTFYTRRYAYWGQGTQVTVSS”, the entry is “high polyreactivity”.
